Starred links: 1 amine or outer side, 2 acyl side, 3 side chain; linkers in the order of their positions; H or OH if unused. Positions of bridges follow the written chain, without caps; N, C: chain ends. Non-standard residues stand in square brackets, D forms with d. Primed or numbered codes have the meaning given here. No end group written: not given here. (Pfbn)GA″ = [Pfbn]GA: (S)-2-amino-3-((carboxymethyl)((perfluorophenyl)methyl)amino)propanoic acid, O=C([C@H](CN(CC(=O)[*:3])Cc1c(F)c(F)c(F)c(F)c1F)N[*:1])[*:2]; PyrS2″ = (S)-3-amino-1-((pent-4-en-1-yloxy)carbonyl)pyrrolidine-3-carboxylic acid (stapling residue), C=CCCCOC(=O)N1CC[C@@](N[*:1])(C(=O)[*:2])C1; (Tfp)GA = [Tfp]GA: (S)-2-amino-3-((carboxymethyl)(3,3,3-trifluoropropyl)amino)propanoic acid, O=C([C@H](CN(CCC(F)(F)F)CC(=O)[*:3])N[*:1])[*:2]; B5(4) = 2,2-bis(4-pentenyl)glycine = 2-amino-2-(pent-4-en-1-yl)hept-6-enoic acid (stitching residue), C=CCCCC(CCCC=C)(N[*:1])C(=O)[*:2]; (Tfp)GA″ = (S)-2-amino-3-((carboxymethyl)(3,3,3-trifluoropropyl)amino)propanoic acid, O=C([C@H](CN(CCC(F)(F)F)CC(=O)[*:3])N[*:1])[*:2]; (Tfb)GA = (S)-2-amino-3-((carboxymethyl)(4,4,4-trifluorobutyl)amino)propanoic acid, O=C([C@H](CN(CCCC(F)(F)F)CC(=O)[*:3])N[*:1])[*:2]; TfeGA = (S)-2-amino-3-((carboxymethyl)(2,2,2-trifluoroethyl)amino)propanoic acid, O=C([C@H](CN(CC(=O)[*:3])CC(F)(F)F)N[*:1])[*:2]; (sBu)GA = [sBu]GA: (2S)-2-amino-3-(sec-butyl(carboxymethyl)amino)propanoic acid, CCC(C)N(CC(=O)[*:3])C[C@H](N[*:1])C(=O)[*:2]; PyrS2 = (S)-3-amino-1-((pent-4-en-1-yloxy)carbonyl)pyrrolidine-3-carboxylic acid, C=CCCCOC(=O)N1CC[C@@](N[*:1])(C(=O)[*:2])C1; (Bn)GA″ = [Bn]GA: (S)-2-amino-3-(benzyl(carboxymethyl)amino)propanoic acid, O=C([C@H](CN(CC(=O)[*:3])Cc1ccccc1)N[*:1])[*:2]; (Me)GA″ = [Me]GA: (S)-2-amino-3-((carboxymethyl)(methyl)amino)propanoic acid, CN(CC(=O)[*:3])C[C@H](N[*:1])C(=O)[*:2]; (Et)GA = [Et]GA: (S)-2-amino-3-((carboxymethyl)(ethyl)amino)propanoic acid, CCN(CC(=O)[*:3])C[C@H](N[*:1])C(=O)[*:2]; (Bn)GA = (S)-2-amino-3-(benzyl(carboxymethyl)amino)propanoic acid, O=C([C@H](CN(CC(=O)[*:3])Cc1ccccc1)N[*:1])[*:2]; (Me)GA = (S)-2-amino-3-((carboxymethyl)(methyl)amino)propanoic acid, CN(CC(=O)[*:3])C[C@H](N[*:1])C(=O)[*:2]; B5(3) = 2,2-bis(4-pentenyl)glycine (stitching residue), C=CCCCC(CCCC=C)(N[*:1])C(=O)[*:2]; B5 = 2-amino-2-(pent-4-en-1-yl)hept-6-enoic acid, C=CCCCC(CCCC=C)(N[*:1])C(=O)[*:2]; Phe(2-CF3) = N[C@@H](Cc1ccccc1C(F)(F)F)C(=O)O; Phe(2-CONH2) = NC(=O)c1ccccc1C[C@H](N)C(=O)O; Phe(2-Br) = N[C@@H](Cc1ccccc1Br)C(=O)O; Phe(2-Cl) = N[C@@H](Cc1ccccc1Cl)C(=O)O; Phe(2-OMe) = COc1ccccc1C[C@H](N)C(=O)O; Phe(2-F) = N[C@@H](Cc1ccccc1F)C(=O)O; Phe(2-Me) = Cc1ccccc1C[C@H](N)C(=O)O; Bta = N[C@@H](Cc1csc2ccccc12)C(=O)O; Lys(iPr) = CC(C)NCCCC[C@H](N)C(=O)O; αAllylPro = C=CC[C@@]1(C(=O)O)CCCN1; tBuAla = CC(C)(C)C[C@H](N)C(=O)O; 3Thi = N[C@@H](Cc1ccsc1)C(=O)O; Cha = N[C@@H](CC1CCCCC1)C(=O)O; S8 = C=CCCCCCC[C@](C)(N)C(=O)O; Thr(ol) = C[C@@H](O)[C@H](N)CO; PyrS2(4) = not defined here
T1: B-cat-Halo (UniProt P35222 1-781)
T1 sequence (looked up): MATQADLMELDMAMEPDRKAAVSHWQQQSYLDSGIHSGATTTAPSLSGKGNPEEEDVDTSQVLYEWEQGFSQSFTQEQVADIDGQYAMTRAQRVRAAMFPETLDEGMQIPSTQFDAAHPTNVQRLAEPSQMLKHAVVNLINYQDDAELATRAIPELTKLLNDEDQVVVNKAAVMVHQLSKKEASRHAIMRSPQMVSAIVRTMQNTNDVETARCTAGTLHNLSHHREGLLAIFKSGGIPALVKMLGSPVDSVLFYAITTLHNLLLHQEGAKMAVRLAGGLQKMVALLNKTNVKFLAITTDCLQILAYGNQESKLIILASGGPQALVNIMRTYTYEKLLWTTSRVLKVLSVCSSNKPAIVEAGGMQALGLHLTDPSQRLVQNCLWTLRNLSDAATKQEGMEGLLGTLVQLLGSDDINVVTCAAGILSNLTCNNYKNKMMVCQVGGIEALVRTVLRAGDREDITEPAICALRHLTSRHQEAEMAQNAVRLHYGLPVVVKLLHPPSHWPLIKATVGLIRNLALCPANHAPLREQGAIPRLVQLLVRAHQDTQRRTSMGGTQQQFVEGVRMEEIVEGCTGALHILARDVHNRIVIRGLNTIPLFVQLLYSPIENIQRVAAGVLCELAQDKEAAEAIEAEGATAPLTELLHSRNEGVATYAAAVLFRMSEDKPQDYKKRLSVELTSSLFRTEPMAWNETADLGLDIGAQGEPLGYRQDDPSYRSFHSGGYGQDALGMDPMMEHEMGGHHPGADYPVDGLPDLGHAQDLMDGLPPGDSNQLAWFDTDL

T2: B-cat-Halo (UniProt P35222 1-781)
T2 sequence (looked up): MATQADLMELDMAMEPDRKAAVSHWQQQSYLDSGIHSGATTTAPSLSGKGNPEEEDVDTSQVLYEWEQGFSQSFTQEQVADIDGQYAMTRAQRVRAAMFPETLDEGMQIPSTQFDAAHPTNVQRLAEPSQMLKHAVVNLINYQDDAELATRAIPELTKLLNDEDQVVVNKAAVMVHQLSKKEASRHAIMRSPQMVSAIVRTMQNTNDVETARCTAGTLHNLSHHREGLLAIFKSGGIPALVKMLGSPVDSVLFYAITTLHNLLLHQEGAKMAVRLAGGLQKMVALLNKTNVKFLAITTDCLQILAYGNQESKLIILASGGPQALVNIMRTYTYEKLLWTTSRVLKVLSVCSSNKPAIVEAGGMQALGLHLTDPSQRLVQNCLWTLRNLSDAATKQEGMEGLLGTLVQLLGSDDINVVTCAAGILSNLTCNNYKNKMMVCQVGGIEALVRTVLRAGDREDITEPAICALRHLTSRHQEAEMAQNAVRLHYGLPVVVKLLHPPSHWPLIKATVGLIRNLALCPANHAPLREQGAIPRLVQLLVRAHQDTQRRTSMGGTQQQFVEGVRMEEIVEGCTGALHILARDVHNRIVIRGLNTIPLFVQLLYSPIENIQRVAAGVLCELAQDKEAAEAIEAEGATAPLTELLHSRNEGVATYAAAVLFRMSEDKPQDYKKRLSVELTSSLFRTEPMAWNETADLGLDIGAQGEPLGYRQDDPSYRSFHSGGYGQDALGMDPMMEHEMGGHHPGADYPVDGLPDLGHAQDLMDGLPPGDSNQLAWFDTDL


Biological target: T1, B-cat-Halo
Experiment: cell-based or functional assay

NanoBRET Abs IC50 [µM] | Binder
8 | Ac-[αAllylPro]D[tBuAla][B5(3)]D[TfeGA]AAFT[PyrS2″][Phe(2-Cl)][Bta][Lys(iPr)]-NH2 (staple 1-4, 4-11) [I-1615]
> 20 | Ac-[αAllylPro]D[tBuAla][B5(3)]D[(Me)GA]AAFN[PyrS2][3Thi][Bta]Q-NH2 (staple 1-4, 4-11; also: earlier eluting staple isomer) [I-1636]
30.1 | Ac-[αAllylPro]D[tBuAla][B5(3)]D[(Me)GA″]AAFL[PyrS2″][3Thi][Bta]Q-NH2 (staple 1-4, 4-11) [I-1631]
27.7 | Ac-[αAllylPro]D[tBuAla][B5(3)]D[(sBu)GA]AAFN[PyrS2″][Phe(2-Cl)][Bta]Q-NH2 (staple 1-4, 4-11) [I-1623]
> 20 | Ac-[αAllylPro]D[tBuAla][B5(3)]D[(Et)GA]AAFN[S8][3Thi][Bta]Q-NH2 (staple 1-4, 4-11; also: later eluting staple isomer) [I-1628]
> 20 | Ac-[αAllylPro]D[tBuAla][B5(3)]D[(Et)GA]AAFN[S8][3Thi][Bta]Q-NH2 (staple 1-4, 4-11; also: earlier eluting staple isomer) [I-1627]
20.6 | Ac-[αAllylPro]D[tBuAla][B5(3)]D[(Bn)GA]AAFN[PyrS2][3Thi][Bta]Q-NH2 (staple 1-4, 4-11) [I-1635]
> 20 | Ac-[αAllylPro]D[tBuAla][B5(3)]D[(Et)GA]AAFN[PyrS2(4)][Phe(2-Cl)][Bta]Q-NH2 (staple 1-4, 4-11; not fully specified; printed as Ac-PL3-Asp-Npg-B5-Asp-[Et]GA-Ala-Ala-Phe-Asn-PyrS2-2C1F-BztA-Gln-NH2; reading uncertain) [I-1622]
5.2 | Ac-[αAllylPro]D[tBuAla][B5(3)]D[(Tfp)GA″]AAFL[PyrS2][3Thi][Bta]Q-NH2 (staple 1-4, 4-11) [I-1633]
42.9 | Ac-[αAllylPro]D[tBuAla][B5(3)]D[(Pfbn)GA″]AAFN[S8][3Thi][Bta]Q-NH2 (staple 1-4, 4-11) [I-1624]
29.3 | Ac-[αAllylPro]D[tBuAla][B5(3)]D[(Tfp)GA]AAFN[S8][3Thi][Bta]Q-NH2 (staple 1-4, 4-11) [I-1625]
16.5 | Ac-[αAllylPro]D[tBuAla][B5(3)]D[(Tfb)GA]AAFN[PyrS2][3Thi][Bta]Q-NH2 (staple 1-4, 4-11) [I-1634]
5 | Ac-[αAllylPro]D[tBuAla][B5(3)]D[(Bn)GA″]AAFL[PyrS2″][3Thi][Bta]Q-NH2 (staple 1-4, 4-11) [I-1630]

Biological target: T2, B-cat-Halo
Experiment: cell-based or functional assay

NanoBRET Abs IC50 [µM] | Binder
5.4 | [αAllylPro]D[tBuAla][B5(4)]DDAAFF[PyrS2″][Phe(2-OMe)][Bta]Q-NH2 (staple 1-4, 4-11) [I-1328]
5.8 | [αAllylPro]D[tBuAla][B5(4)]DDAAFL[PyrS2″][Phe(2-Br)][Bta]Q-NH2 (staple 1-4, 4-11) [I-1324]
9.1 | Ac-[αAllylPro]D[tBuAla][B5(4)]DDAAFF[PyrS2″][Phe(2-F)][Bta]Q-NH2 (staple 1-4, 4-11) [I-1322]
6.2 | [αAllylPro]D[tBuAla][B5(4)]DDAAFF[PyrS2″][Phe(2-Me)][Bta]Q-NH2 (staple 1-4, 4-11) [I-1326]
10.9 | Ac-[αAllylPro]D[tBuAla][B5(4)]DDAAFL[PyrS2″][Phe(2-F)][Bta]Q-NH2 (staple 1-4, 4-11) [I-1321]
> 20 | Ac-[αAllylPro]D[tBuAla][B5(4)]DDAAFN[PyrS2″][Phe(2-CONH2)][Bta]Q-NH2 (staple 1-4, 4-11) [I-1314]
11.7 | Ac-[αAllylPro]D[tBuAla][B5(4)]DDAAFN[PyrS2″][Phe(2-Br)][Bta]Q-NH2 (staple 1-4, 4-11) [I-1323]
5.7 | [αAllylPro]D[tBuAla][B5(4)]DDAAFF[PyrS2″][Phe(2-Br)][Bta]Q-NH2 (staple 1-4, 4-11) [I-1325]
16.1 | Ac-[αAllylPro]D[Cha][B5(4)]DDAAFT[PyrS2″][Phe(2-Cl)][Bta][Thr(ol)] (staple 1-4, 4-11) [I-1312]
6.8 | Ac-[αAllylPro]D[tBuAla][B5(4)]DDAAFF[PyrS2″][2cbmF][Bta]Q-NH2 (staple 1-4, 4-11) [I-1316]
9.7 | Ac-[αAllylPro]D[tBuAla][B5(4)]DDAAFN[PyrS2″][Phe(2-CF3)][Bta]Q-NH2 (staple 1-4, 4-11) [I-1317]
26.2 | Ac-[αAllylPro]D[tBuAla][B5(4)]DDAAFN[PyrS2″][Phe(2-F)][Bta]Q-NH2 (staple 1-4, 4-11) [I-1320]
7 | [αAllylPro]D[tBuAla][B5(4)]DDAAFL[PyrS2″][Phe(2-OMe)][Bta]Q-NH2 (staple 1-4, 4-11) [I-1327]
7.2 | Ac-[αAllylPro]D[tBuAla][B5(4)]DDAAFL[PyrS2″][2cbmF][Bta]Q-NH2 (staple 1-4, 4-11) [I-1315]
35 | [αAllylPro]D[tBuAla][B5]DDAAFN[PyrS2][Cha][Bta]Q-NH2 (staple 1-4, 4-11) [I-1329]
51.4 | Ac-[αAllylPro]D[tBuAla][B5(4)]DD[Lys(iPr)]AFL[PyrS2″][Phe(2-Cl)][Bta][Thr(ol)] (staple 1-4, 4-11) [I-1313]
